This note sets out measurements from patent US20230124851A1 (INHIBRX LNC, published 2023).

Assay [1] addresses T1, CD3 on the surface of human T cells (human, UniProt P07766 23-207).
T1 construct: whole, on cells; Part of the CD3/TCR complex on cells; also called CD3 epsilon
In words: flow cytometry on primary human T cells; column head 'Affinity CD3'. As for the experimental part:
(§1) Binding of exemplary B7H3-targeting constrained CD3 engaging constructs set forth in Table E3 to CD3 on the surface of primary T cells or B7H3-expressing cells (A375) was assessed by flow cytometry. The T cells were primary T-cells that were negatively enriched from PBMCs isolated from healthy human donor peripheral blood leukopaks. Bound construct was detected with fluorophore-conjugated secondary antibodies specific for the human Fc (anti-human IgG APC secondary antibody) and binding was measured by flow cytometry. Cells incubated with secondary antibody only served as negative controls. Binding was compared to Dual-affinity Re-targeting Antibody (DART)-monomeric Fc format targeting B7H3 and CD3 (DART-Fc B7H3xCD3; see e.g. WO2017030926A1).
(§2) Table E4 summarizes the affinity of exemplary molecules for B7H3 or CD3, as determined from flow cytometry, in these studies.
(In general: In flow cytometry, cells or beads pass a laser one at a time.)

Assay [2] has as its target T2, human B7H3 (CD276) on the cell surface (human, UniProt Q5ZPR3 29-534).
T2 construct: B7H3 on A375 and other B7H3-positive or transfected cells
T2 sequence: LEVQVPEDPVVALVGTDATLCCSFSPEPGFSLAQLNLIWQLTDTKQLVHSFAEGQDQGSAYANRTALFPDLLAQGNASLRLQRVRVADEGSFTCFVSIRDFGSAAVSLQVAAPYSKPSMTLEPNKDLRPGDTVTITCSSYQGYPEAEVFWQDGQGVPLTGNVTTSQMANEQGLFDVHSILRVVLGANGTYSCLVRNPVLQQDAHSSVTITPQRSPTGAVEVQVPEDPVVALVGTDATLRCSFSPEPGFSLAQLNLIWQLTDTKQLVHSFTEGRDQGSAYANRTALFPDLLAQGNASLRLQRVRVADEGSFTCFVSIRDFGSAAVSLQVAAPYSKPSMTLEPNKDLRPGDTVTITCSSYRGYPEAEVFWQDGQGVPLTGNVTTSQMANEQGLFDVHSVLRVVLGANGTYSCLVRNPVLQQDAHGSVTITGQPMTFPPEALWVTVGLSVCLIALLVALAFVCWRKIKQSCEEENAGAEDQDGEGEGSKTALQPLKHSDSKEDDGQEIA
In words: flow cytometry titration on A375 cells (B7H3+); column head 'Affinity B7H3' (apparent). As for the experimental part:
as §1, §2

For assay [3], the target named is T2, human B7H3 (CD276) on the cell surface. As to the kind of experiment: flow cytometry on A375 cells (B7H3+), anti-human Fc secondary. On the procedure:
(§3) Binding of exemplary multispecific constructs containing an antigen-binding domain directed against B7H3 were assessed for binding to B7H3 positive A375 tumor cells or primary T-cells. The constructs were generated containing antigen-binding domain(s) that were either sdAbs or a FABs, and that were positioned either only N-terminal to the Fc or both N-terminal to the Fc and C-terminal to the anti-CD3 binding domain (see FIGS. 30A and 30C and Table E5). Among the various formats of constructs tested included: sdAb-Fc-dsFV-sdAb (cx3072, cx5952) sdAb-Fc-FV (cx6079), sdAb-Fc-dsFV (cs6080, cx6081), MAB-FV (cx5067) and MAB-dsFV (cx6083, cx6084), where the FV represents the anti-CD3 binding domain composed of VH and VL domain pairs and “ds” notes disulfide stabilized via an engineered interdomain disulfide bond.
(§4) Binding was assessed as described above via flow cytometry using a fluorophore-conjugated anti-human Fc secondary antibody. cx3072 bound to A375 cells with high affinity (FIG. 31A) but not to isolated T-cells (FIG. 31B). […] The B7H3 -targeting sdAb containing constructs (cx5952, cx6079, cx6080, and cx6081) bound to B7H3 positive cells with similar affinities (depicted in FIG. 31E), with cx5952 displaying higher maximal binding. cx6079, cx6080 and cx6081 contain two identical B7H3-targeting sdAbs, whereas cx5952, and cx3072 contain two distinct B7H3-targeting sdAb that bind different epitopes. The MAB-FV, cx5067, contains two identical B7H3-targeting FAB domains.

The target in assay [4] is T1, CD3 on the surface of human T cells. As to the kind of experiment: flow cytometry on primary human T cells, anti-human Fc secondary. As for the experimental part: as §3, §4

T1 sequence (P07766 23-207): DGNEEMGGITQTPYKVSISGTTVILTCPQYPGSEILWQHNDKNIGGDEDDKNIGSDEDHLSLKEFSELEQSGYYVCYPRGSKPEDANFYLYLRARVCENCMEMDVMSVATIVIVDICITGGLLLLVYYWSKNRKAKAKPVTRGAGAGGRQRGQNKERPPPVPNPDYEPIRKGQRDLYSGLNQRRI

B1: cx3855 (bispecific antibody)
chain 1: EVQLVESGGGEVQPGGSLRLSCAASGSTFSSYHMSWFRQAPGKQREPVATSHHGGTTNYAGSVKGRFTISRDNAKNTVYLQMNTLRAEDTAVYYCKADHGYQGRGYWGQGTLVTVKPDKTHTCPPCPAPGGPSVFLFPPKPKDTLMISRTPEVTCVVVDVSHEDPEVKFNWYVDGVEVHNAKTKPREEQYNSTYRVVSVLTVLHQDWLNGKEYKCKVSNKALPAPIEKTISKAKGQPREPQVYTLPPCRDELTKNQVSLWCLVKGFYPSDIAVEWESNGQPENNYKTTPPVLDSDGSFFLYSKLTVDKSRWQQGNVFSCSVMHEALHNHYTQKSLSLSPTGGSGGGGIEPDIGGSGGSEVQLVESGGGLVQPGGSLRLSCAASGFTFNTYAMNWVRQAPGKCLEWVARIRSKYNNYATYYADSVKGRFTISRDDAKNTLYLQMSSLRAEDTAVYYCVRHGNFGNSYVSWFAYWGQGTLVTVKPEVQLVESGGGEVQPGGSLRLSCAASGSTFSSYHMSWFRQAPGKQREPVATSHHGGTTNYAGSVKGRFTISRDNAKNTVYLQMNTLRAEDTAVYYCKADHGYQGRGYWGQGTLVTVKP
chain 2: DKTHTCPPCPAPGGPSVFLFPPKPKDTLMISRTPEVTCVVVDVSHEDPEVKFNWYVDGVEVHNAKTKPREEQYNSTYRVVSVLTVLHQDWLNGKEYKCKVSNKALPAPIEKTISKAKGQPREPQVCTLPPSRDELTKNQVSLSCAVKGFYPSDIAVEWESNGQPENNYKTTPPVLDSDGSFFLVSKLTVDKSRWQQGNVFSCSVMHEALHNRYTQKSLSLSPTGGSGGGGIEPDIGGSGGSQAVVTQEPSLTVSPGGTVTLTCGSSTGAVTTSNYANWVQQKPGQAFRGLIGGTNKRAPGVPARFSGSLLGGKAALTISGAQPEDEADYYCALWYSNHWVFGCGTKLTVLEVQLLESGGGEVQPGGSLRLSCAASGFSFSINAMGWYRQAPGKRREFVAAIESGRNTVYAESVKGRFTISRDNAKNTVYLQMSSLRAEDTAVYYCGLLKGNRVVSPSVAYWGQGTLVTVKP
notes: chain 2 ends in the 4-1BB sdAb RH3v5-1; Printed composition is the same as cx4904
In the case of B1, the Kd is greater than 200 nM in assay [1] and 0.395 nM in assay [2].

B2: cx5952 (bispecific antibody)
chain 1: EVQLVESGGGEVQPGGSLRLSCAASGFSFSSNVMMWVRQAPGKGLEWVSTIYSSGTGTFYAESVKGRFTISRDNAKNTLYLQMSSLRPEDTAVYYCATSGPVRGWGPRSQGTLVTVKPPGGGGDKTHTCPPCPAPGGPSVFLFPPKPKDTLMISRTPEVTCVVVDVSHEDPEVKFNWYVDGVEVHNAKTKPREEQYNSTYRVVSVLTVLHQDWLNGKEYKCKVSNKALPAPIEKTISKAKGQPREPQVYTLPPCRDELTKNQVSLWCLVKGFYPSDIAVEWESNGQPENNYKTTPPVLDSDGSFFLYSKLTVDKSRWQQGNVFSCSVMHEALHNHYTQKSLSLSPGGGGGGSGGGGGSGGGGGSEVQLVESGGGLVQPGGSLRLSCAASGFTFNTYAMNWVRQAPGKCLEWVARIRSKYNNYATYYADSVKGRFTISRDDAKNTLYLQMSSLRAEDTAVYYCVRHGNFGNSYVSWFAYWGQGTLVTVKPGGGGEVQLVESGGGEVQPGGSLRLSCAASGFTFSSYHMSWFRQAPGKQRELVATSHHGGTTNYAGSVKGRFTISRDNAKNTVYLQMNTLRAEDTAVYYCKADHGYQGRGYWGQGTLVTVKP
chain 2: DKTHTCPPCPAPGGPSVFLFPPKPKDTLMISRTPEVTCVVVDVSHEDPEVKFNWYVDGVEVHNAKTKPREEQYNSTYRVVSVLTVLHQDWLNGKEYKCKVSNKALPAPIEKTISKAKGQPREPQVCTLPPSRDELTKNQVSLSCAVKGFYPSDIAVEWESNGQPENNYKTTPPVLDSDGSFFLVSKLTVDKSRWQQGNVFSCSVMHEALHNRYTQKSLSLSPGGGGGGSGGGGGSGGGGGSQAVVTQEPSLTVSPGGTVTLTCGSSTGAVTTSNYANWVQQKPGQAFRGLIGGTNKRAPGVPARFSGSLLGGKAALTISGAQPEDEADYYCALWYSNHWVFGCGTKLEIK
notes: also called sdAb-Fc-dsFV-sdAb
B2: the binding result in assay [3] is reported as “binds”; in assay [4], “no binding”.

B3: cx6079 (bispecific antibody)
chain 1: EVQLVESGGGEVQPGGSLRLSCAASGFSFSSNVMMWVRQAPGKGLEWVSTIYSSGTGTFYAESVKGRFTISRDNAKNTLYLQMSSLRPEDTAVYYCATSGPVRGWGPRSQGTLVTVKPPGGGGDKTHTCPPCPAPPVAGPSVFLFPPKPKDTLMISRTPEVTCVVVDVKHEDPEVKFNWYVDGVEVHNAKTKPREEEYNSTYRVVSVLTVLHQDWLNGKEYKCKVSNKALPAPIEKTISKAKGQPREPQVYTLPPSREEMTKNQVSLTCDVSGFYPSDIAVEWESDGQPENNYKTTPPVLDSDGSFFLYSKLTVDKSRWEQGDVFSCSVMHEALHNHYTQKSLSLSPGKGGGGSGGGGSGGGGSEVQLVESGGGLVQPGGSLRLSCAASGFTFSTYAMNWVRQAPGKGLEWVGRIRSKYNNYATYYADSVKGRFTISRDDSKNTLYLQMNSLRAEDTAVYYCVRHGNFGDSYVSWFAYWGQGTLVTVSS
chain 2: EVQLVESGGGEVQPGGSLRLSCAASGFSFSSNVMMWVRQAPGKGLEWVSTIYSSGTGTFYAESVKGRFTISRDNAKNTLYLQMSSLRPEDTAVYYCATSGPVRGWGPRSQGTLVTVKPPGGGGDKTHTCPPCPAPPVAGPSVFLFPPKPKDTLMISRTPEVTCVVVDVKHEDPEVKFNWYVDGVEVHNAKTKPREEQYNSTYRVVSVLTVLHQDWLNGKEYKCKVSNKALPAPIEKTISKAKGQPREPQVYTLPPSREQMTKNQVKLTCLVKGFYPSDIAVEWESNGQPENNYKTTPPVLDSDGSFFLYSKLTVDKSRWQQGNVFSCSVMHEALHNHYTQKSLSLSPGKGGGGSGGGGSGGGGSQAVVTQEPSLTVSPGGTVTLTCGSSTGAVTTSNYANWVQQKPGKSPRGLIGGTNKRAPGVPARFSGSLLGGKAALTISGAQPEDEADYYCALWYSNHWVFGGGTKLTVL
notes: also called sdAb-Fc-FV
As for B3, the binding result in assay [3] was “binds”; in assay [4] it was “no binding”.

B4: cx6080 (bispecific antibody)
chain 1: EVQLVESGGGEVQPGGSLRLSCAASGFSFSSNVMMWVRQAPGKGLEWVSTIYSSGTGTFYAESVKGRFTISRDNAKNTLYLQMSSLRPEDTAVYYCATSGPVRGWGPRSQGTLVTVKPPGGGGDKTHTCPPCPAPPVAGPSVFLFPPKPKDTLMISRTPEVTCVVVDVKHEDPEVKFNWYVDGVEVHNAKTKPREEEYNSTYRVVSVLTVLHQDWLNGKEYKCKVSNKALPAPIEKTISKAKGQPREPQVYTLPPSREEMTKNQVSLTCDVSGFYPSDIAVEWESDGQPENNYKTTPPVLDSDGSFFLYSKLTVDKSRWEQGDVFSCSVMHEALHNHYTQKSLSLSPGKGGGGSGGGGSGGGGSEVQLVESGGGLVQPGGSLRLSCAASGFTFSTYAMNWVRQAPGKCLEWVGRIRSKYNNYATYYADSVKGRFTISRDDSKNTLYLQMNSLRAEDTAVYYCVRHGNFGDSYVSWFAYWGQGTLVTVSS
chain 2: EVQLVESGGGEVQPGGSLRLSCAASGFSFSSNVMMWVRQAPGKGLEWVSTIYSSGTGTFYAESVKGRFTISRDNAKNTLYLQMSSLRPEDTAVYYCATSGPVRGWGPRSQGTLVTVKPPGGGGDKTHTCPPCPAPPVAGPSVFLFPPKPKDTLMISRTPEVTCVVVDVKHEDPEVKFNWYVDGVEVHNAKTKPREEQYNSTYRVVSVLTVLHQDWLNGKEYKCKVSNKALPAPIEKTISKAKGQPREPQVYTLPPSREQMTKNQVKLTCLVKGFYPSDIAVEWESNGQPENNYKTTPPVLDSDGSFFLYSKLTVDKSRWQQGNVFSCSVMHEALHNHYTQKSLSLSPGKGGGGSGGGGSGGGGSQAVVTQEPSLTVSPGGTVTLTCGSSTGAVTTSNYANWVQQKPGKSPRGLIGGTNKRAPGVPARFSGSLLGGKAALTISGAQPEDEADYYCALWYSNHWVFGCGTKLTVL
notes: also called cs6080; sdAb-Fc-dsFV
In the case of B4, the values for the binding result in assay [3] and in assay [4] were “binds” and “no binding”, respectively.
